{"source": "patent US20210196823A1", "about": "“Methods of Treating Metabolic Disease” (Pfizer Inc., priority 2018, published 2021)", "molecules": {"B1": {"name": "ERFE: hormone erythroferrone (FAM132b); recombinant protein, species or construct not stated at the place (SPR used ERFE A4-biotin) (protein)", "chain": "AAGLGSPEPGAPSRSAAAAEPPPGNELPRGPGESRAGPAARPPEPTAERAHSVDPRDAWMLFVRQSDKGVNGKKRSRGKAKKLKFGLPGPPGPPGPQGPPGPIIPPEALLKEFQLLLKGAVRQRERAEPEPCTCGPAGPVAASLAPVSATAGEDDDDVVGDVLALLAAPLAPGPRAPRVEAAFLCRLRRDALVERRALHELGVYYLPDAEGAFRRGPGLNLTSGQYRAPVAGFYALAATLHVALGEPPRRGPPRPRDHLRLLICIQSRCQRNASLEAIMGLESSSELFTISVNGVLYLQMGQWTSVFLDNASGCSLTVRSGSHFSAVLLGV"}}, "key": {"Huh7 cells": {"tested_on": "Huh7 cells", "assay": "HAMP and ID1 qRT-PCR in Huh7 cells treated with BMPs with or without mouse ERFE", "assay_type": "cell-based", "details": "a variety of different cell types", "protocol": "(b) Gene expression microarray: Microarray analysis of Huh7 cells treated with mouse or human erythroferrone was carried out to test the activity of erythroferrone on the BMP/SMAD signalling pathway. Generally cell treatments were carried out according to the following protocol: Huh7 and HepG2 were cultured in Dulbecco's Modified Eagle's Medium—High Glucose (Sigma), supplemented with 10% Fetal Bovine Serum (Sigma), 1% Penicillin-Streptomycin (Sigma) and 1% L-Glutamine (Sigma), unless otherwise indicated. Cells were plated 24 h before treatments in 24-well (gene expression analysis) or 12-well (protein analysis) cell culture plates. At the time of treatment, cells were washed with PBS and fresh media was added.\n(c) RNA isolation, cDNA synthesis and qRT-PCR: Suppression of several BMP-target genes: HAMP, ID1, ID3, SMAD6 and SMAD7 was further confirmed by qRT-PCR. Cells were lysed and RNA was isolated using the RNeasy Plus kit (Qiagen), followed by RNA quantification and quality assessment using Nanodrop (Thermo Fisher). cDNA was synthesized using the High Capacity RNA-to-cDNA kit (Applied Biosystems). Gene expression was assessed using quantitative real-time PCR with Taqman Gene Expression Master Mix and inventoried Taqman Gene expression assays (Applied Biosystems) specific for the genes of interest according to the manufacturer's instructions. […]"}, "abdominal preadipocytes": {"tested_on": "abdominal preadipocytes", "assay": "Western blot of phospho- and total SMAD1/5/8 in preadipocytes", "assay_type": "cell-based, Human", "details": "abdominal cells, 30 minutes", "protocol": "(a) Primary pre-adipocyte isolation. Human primary pre-adipocytes were prepared by isolation from white adipose tissue (WAT) biopsies taken under local anesthetic (1% lignocaine) by needle aspiration at the level of the umbilicus (ASAT) and from the upper-, outer-quadrant of the gluteal region (GSAT). Primary preadipocytes were isolated from ASAT and GSAT biopsies by mechanically mincing using scissors, washed twice with Hanks' buffered salt solution to remove contaminating blood, and then enzymatically digested in 1 mg/ml collagenase (Roche Applied Science) in Hanks' buffered salt solution in a shaking water bath (90 rpm) at 37° C. for 45 min. The digested tissue was centrifuged at 1000 rpm for 5 min at 4° C. The pellet containing stromal-vascular cells was resuspended in Dulbecco's modified Eagle's medium/F12 Ham's nutrient mixture (v/v, 1:1) containing 17.5 mM glucose and supplemented with 10% foetal calf serum, 0.25 ng/ml fibroblast growth factor, 2 mM glutamine, 100 units/ml penicillin and 100 μg/ml streptomycin. Cell stocks of APAD and GPAD cells were prepared and stored in liquid nitrogen for future studies. […]"}, "BMP2": {"target": "T1, BMP2 (Homo sapiens, UniProt P12643)", "T1 sequence (P12643 283-396)": "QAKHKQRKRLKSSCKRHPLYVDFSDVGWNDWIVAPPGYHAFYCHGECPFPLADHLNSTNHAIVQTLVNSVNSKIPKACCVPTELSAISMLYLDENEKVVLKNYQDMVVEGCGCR", "assay": "Biacore SPR, BMP run against ERFE A4-biotin on CM4 chip", "assay_type": "binding", "details": "BMP 50 nM, MES-Tris buffer pH6.0, 25° C.", "excerpt": "(§1) Iron absorption is tightly regulated by erythropoietic demand via control of hepcidin expression. Erythropoietin (EPO) causes hepcidin suppression, at least in part by increasing synthesis of the hormone erythroferrone (ERFE). ERFE is produced by erythroblasts after bleeding or EPO treatment, and acts on hepatocytes to suppress hepcidin expression and increase iron availability. ERFE knock out mice fail to suppress hepcidin after phlebotomy and show delayed recovery from blood loss. Furthermore, serum ERFE concentrations are increased in humans after blood loss and EPO administration, and in β-thalassemia patients. Hepcidin expression is modulated via the BMP/SMAD signalling pathway. […] We sought to determine whether the mechanism by which ERFE suppresses hepcidin is through interaction with BMP. Binding constants were measure using Biacore SPR. BMPs 2, 4, 6 at 50 nM was run against ERFE A4-biotin amine coupled to CM4 sensor chip in MES-Tris buffer pH6.0, 25° C."}, "BMP4": {"target": "T2, BMP4 (Homo sapiens, UniProt P12644)", "T2 sequence (P12644 293-408)": "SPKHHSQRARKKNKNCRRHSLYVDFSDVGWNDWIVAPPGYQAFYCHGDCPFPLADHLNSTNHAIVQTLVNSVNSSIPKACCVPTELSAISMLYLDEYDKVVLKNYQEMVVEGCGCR", "assay": "Biacore SPR, BMP run against ERFE A4-biotin on CM4 chip", "assay_type": "binding", "details": "BMP 50 nM, MES-Tris buffer pH6.0, 25° C.", "excerpt": "as §1"}, "BMP6": {"target": "T3, BMP6 (Homo sapiens, UniProt P22004)", "T3 sequence (P22004 375-513)": "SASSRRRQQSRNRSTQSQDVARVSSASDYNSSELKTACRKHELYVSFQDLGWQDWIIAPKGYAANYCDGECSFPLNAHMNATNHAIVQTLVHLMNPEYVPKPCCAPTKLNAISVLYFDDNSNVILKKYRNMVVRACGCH", "assay": "Biacore SPR, BMP run against ERFE A4-biotin on CM4 chip", "assay_type": "binding", "excerpt": "as §1"}}, "data": [{"molecule": "B1", "values": [{"measurement": "inhibitory action on BMP2 and 4 and BMP2/6 heterodimer", "setting": "Huh7 cells", "value": "Inhibitory action is also seen"}, {"measurement": "BMP2-induced SMAD1/5/8 phosphorylation on addition of ERFE", "setting": "abdominal preadipocytes", "value": "diminished"}, {"measurement": "Kd of ERFE binding to BMP2", "setting": "BMP2", "value": "nanomolar"}, {"measurement": "Kd of ERFE binding to BMP4", "setting": "BMP4", "value": "nanomolar"}, {"measurement": "Kd of ERFE binding to BMP6", "setting": "BMP6; BMP 50 nM, MES-Tris buffer pH6.0, 25° C.", "value": "nanomolar"}, {"measurement": "tightness of ERFE binding among BMPs 2, 4 and 6", "setting": "BMP6; SPR (Biacore)", "value": "most tightly"}]}]}
